Results: the supplement of paper PMC9112550, “Optimization of the antimicrobial peptide Bac7 by deep mutational scanning” (BMC Biology, 2022)

Tested on: Escherichia coli TOP10
Test: shrunken log2 fold change of peptide-encoding DNA abundance (4.5 h post-induction vs induction); higher = less antimicrobial activity (less host growth inhibition)
Conditions: time post-induction: 4.5 h; library: site-saturation at positions 5, 18, 19, 20
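Further: peptides expressed intracellularly from a pBAD plasmid library in pooled LB shake-flask culture, induced with 0.3% L-arabinose, DNA abundance read by NGS, three biological replicates, DESeq2 with apeglm shrinkage.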

| Sequence | shrunken log2 fold change |
| --- | --- |
| RRIRSRPPRLPRPRPRPNPCPRP | -0.574 |
| RRIRQRPPRLPRPRPRPSLYPRP | -0.233 |
| RRIRGRPPRLPRPRPRPTIHPRP | 0.434 |
| RRIRFRPPRLPRPRPRPPRSPRP | 0.488 |
| RRIRPRPPRLPRPRPRPEPHPRP | 0.298 |
| RRIRRRPPRLPRPRPRPYSQPRP | -0.032 |
| RRIRNRPPRLPRPRPRPDYEPRP | -0.00884 |
| RRIRGRPPRLPRPRPRPRGIPRP | 1.23 |
| RRIRWRPPRLPRPRPRPACQPRP | 0.015 |
| RRIRLRPPRLPRPRPRPYHGPRP | -0.278 |
| RRIRARPPRLPRPRPRPYSTPRP | -0.563 |
| RRIRPRPPRLPRPRPRPHQFPRP | -0.0896 |
| RRIRIRPPRLPRPRPRPRANPRP | 0.0386 |
| RRIRNRPPRLPRPRPRPQHDPRP | -0.25 |
| RRIRIRPPRLPRPRPRPRGLPRP | -0.272 |
| RRIRRRPPRLPRPRPRPETCPRP | -0.00655 |
| RRIRNRPPRLPRPRPRPYSFPRP | -1.01 |
| RRIRWRPPRLPRPRPRPHFAPRP | 0.046 |
| RRIRRRPPRLPRPRPRPHIQPRP | -0.114 |
| RRIRVRPPRLPRPRPRPPTPPRP | 0.548 |
| RRIRMRPPRLPRPRPRPIIAPRP | 0.0852 |
| RRIRHRPPRLPRPRPRPKRWPRP | 0.293 |
| RRIRMRPPRLPRPRPRPMQMPRP | 0.671 |
| RRIRYRPPRLPRPRPRPNEHPRP | -0.268 |
| RRIRERPPRLPRPRPRPLNHPRP | -0.443 |

| Sequence | shrunken log2 fold change |
| --- | --- |
| RRIRCRPPRLPRPRPRPNKYPRP | -0.324 |
| RRIRERPPRLPRPRPRPWEYPRP | 0.0155 |
| RRIRYRPPRLPRPRPRPRNIPRP | -0.00665 |
| RRIRVRPPRLPRPRPRPTVRPRP | 0.126 |
| RRIRLRPPRLPRPRPRPKATPRP | -0.116 |
| RRIRLRPPRLPRPRPRPQQFPRP | -0.0691 |
| RRIRIRPPRLPRPRPRPDWRPRP | 0.194 |
| RRIRFRPPRLPRPRPRPTAIPRP | -0.0113 |
| RRIRYRPPRLPRPRPRPLEFPRP | -0.89 |
| RRIRRRPPRLPRPRPRPNVIPRP | -0.265 |
| RRIRDRPPRLPRPRPRPQWYPRP | -0.45 |
| RRIRMRPPRLPRPRPRPAGHPRP | 1.24 |
| RRIRYRPPRLPRPRPRPLKAPRP | 0.141 |
| RRIRDRPPRLPRPRPRPGVNPRP | 0.148 |
| RRIRFRPPRLPRPRPRPTVDPRP | -0.175 |
| RRIRSRPPRLPRPRPRPIIYPRP | -0.182 |
| RRIRNRPPRLPRPRPRPMPTPRP | 0.257 |
| RRIRHRPPRLPRPRPRPPTKPRP | 0.161 |
| RRIRLRPPRLPRPRPRPQRGPRP | 0.111 |
| RRIRERPPRLPRPRPRPGQHPRP | -0.242 |
| RRIRMRPPRLPRPRPRPNKRPRP | 0.261 |
| RRIRERPPRLPRPRPRPLKWPRP | 0.159 |
| RRIRQRPPRLPRPRPRPLAIPRP | -0.122 |
| RRIRNRPPRLPRPRPRPCLHPRP | -0.888 |
| RRIRTRPPRLPRPRPRPIRTPRP | 0.063 |

| Sequence | shrunken log2 fold change |
| --- | --- |
| RRIRFRPPRLPRPRPRPQGDPRP | 0.014 |
| RRIRCRPPRLPRPRPRPGMYPRP | -0.848 |
| RRIRPRPPRLPRPRPRPIGDPRP | -0.0205 |
| RRIRNRPPRLPRPRPRPVPPPRP | 0.234 |
| RRIRHRPPRLPRPRPRPVSYPRP | -0.00133 |
| RRIRLRPPRLPRPRPRPSERPRP | -0.0849 |
| RRIRKRPPRLPRPRPRPVQYPRP | 0.071 |
| RRIRTRPPRLPRPRPRPVVLPRP | -0.149 |
| RRIRQRPPRLPRPRPRPFGPPRP | 0.0675 |
| RRIRNRPPRLPRPRPRPTLTPRP | 0.0952 |
| RRIRARPPRLPRPRPRPKLEPRP | 0.623 |
| RRIRQRPPRLPRPRPRPTSVPRP | 0.0377 |
| RRIRIRPPRLPRPRPRPGITPRP | -0.182 |
| RRIRTRPPRLPRPRPRPQFKPRP | 2.23 |
| RRIRIRPPRLPRPRPRPLCAPRP | -0.183 |
| RRIRERPPRLPRPRPRPKRVPRP | -0.0417 |
| RRIRMRPPRLPRPRPRPQPRPRP | 1.22 |
| RRIRGRPPRLPRPRPRPQEEPRP | 0.0943 |
| RRIRERPPRLPRPRPRPPPSPRP | 0.415 |
| RRIRWRPPRLPRPRPRPAHSPRP | 0.321 |
| RRIRWRPPRLPRPRPRPEPAPRP | 1.18 |
| RRIRDRPPRLPRPRPRPNIQPRP | -0.0288 |
| RRIRVRPPRLPRPRPRPLNYPRP | -0.621 |
| RRIRHRPPRLPRPRPRPDSSPRP | 0.00209 |
| RRIRGRPPRLPRPRPRPMTKPRP | 0.524 |

| Sequence | shrunken log2 fold change |
| --- | --- |
| RRIRERPPRLPRPRPRPCKTPRP | 0.0029 |
| RRIRYRPPRLPRPRPRPKCSPRP | -0.433 |
| RRIRIRPPRLPRPRPRPCNRPRP | -0.425 |
| RRIRDRPPRLPRPRPRPDQSPRP | 0.0019 |
| RRIRTRPPRLPRPRPRPEKHPRP | 0.0385 |
| RRIRHRPPRLPRPRPRPIPFPRP | 0.0406 |
| RRIRKRPPRLPRPRPRPVESPRP | 0.0629 |
| RRIRGRPPRLPRPRPRPHDFPRP | -0.0983 |
| RRIRFRPPRLPRPRPRPMCMPRP | -0.153 |
| RRIRLRPPRLPRPRPRPMWLPRP | -0.0867 |
| RRIRHRPPRLPRPRPRPYISPRP | -0.0543 |
| RRIRGRPPRLPRPRPRPPFRPRP | 0.681 |
| RRIRMRPPRLPRPRPRPGEPPRP | 0.163 |
| RRIRERPPRLPRPRPRPAYFPRP | 0.019 |
| RRIRKRPPRLPRPRPRPHKIPRP | 0.134 |
| RRIRCRPPRLPRPRPRPQTWPRP | 0.295 |
| RRIRYRPPRLPRPRPRPHNSPRP | -0.753 |
| RRIRCRPPRLPRPRPRPNRDPRP | -0.167 |
| RRIRWRPPRLPRPRPRPEQNPRP | 0.117 |
| RRIRSRPPRLPRPRPRPEIYPRP | -0.295 |
| RRIRVRPPRLPRPRPRPDHKPRP | -0.0198 |
| RRIRSRPPRLPRPRPRPTGKPRP | 0.274 |
| RRIRVRPPRLPRPRPRPRYCPRP | -0.144 |
| RRIRMRPPRLPRPRPRPNLFPRP | 0.124 |
| RRIRCRPPRLPRPRPRPEYDPRP | -0.173 |

| Sequence | shrunken log2 fold change |
| --- | --- |
| RRIRCRPPRLPRPRPRPVGEPRP | 0.0624 |
| RRIRLRPPRLPRPRPRPSWHPRP | 0.25 |
| RRIRQRPPRLPRPRPRPIARPRP | -0.0171 |
| RRIRFRPPRLPRPRPRPQWYPRP | -0.981 |
| RRIRRRPPRLPRPRPRPGMDPRP | 0.0814 |
| RRIRQRPPRLPRPRPRPCMWPRP | -0.148 |
| RRIRFRPPRLPRPRPRPMPPPRP | 0.55 |
| RRIRRRPPRLPRPRPRPMWIPRP | -0.137 |
| RRIRPRPPRLPRPRPRPVDKPRP | -0.153 |
| RRIRVRPPRLPRPRPRPLSEPRP | 0.0246 |
| RRIRIRPPRLPRPRPRPGWSPRP | 0.312 |
| RRIRARPPRLPRPRPRPDEKPRP | 0.447 |
| RRIRCRPPRLPRPRPRPYPTPRP | -0.517 |
| RRIRIRPPRLPRPRPRPKPDPRP | 0.528 |
| RRIRVRPPRLPRPRPRPSVKPRP | -0.155 |
| RRIRDRPPRLPRPRPRPYFKPRP | -0.381 |
| RRIRDRPPRLPRPRPRPETSPRP | -0.0166 |
| RRIRMRPPRLPRPRPRPWMHPRP | -0.128 |
| RRIRNRPPRLPRPRPRPHDRPRP | -0.146 |
| RRIRDRPPRLPRPRPRPGAHPRP | 0.651 |
| RRIRARPPRLPRPRPRPMNGPRP | -0.0023 |
| RRIRARPPRLPRPRPRPQHHPRP | -0.298 |
| RRIRSRPPRLPRPRPRPINPPRP | -0.447 |
| RRIRMRPPRLPRPRPRPFLFPRP | 0.0343 |
| RRIRYRPPRLPRPRPRPVINPRP | -0.338 |

| Sequence | shrunken log2 fold change |
| --- | --- |
| RRIRERPPRLPRPRPRPCGPPRP | -0.131 |
| RRIRYRPPRLPRPRPRPMPMPRP | -0.319 |
| RRIRVRPPRLPRPRPRPHCFPRP | -0.147 |
| RRIRDRPPRLPRPRPRPSGYPRP | 0.0153 |
| RRIRFRPPRLPRPRPRPECEPRP | 0.639 |
| RRIRYRPPRLPRPRPRPYWGPRP | -0.0899 |
| RRIRSRPPRLPRPRPRPSRKPRP | -0.0434 |
| RRIRMRPPRLPRPRPRPNNFPRP | -0.169 |
| RRIRYRPPRLPRPRPRPPSYPRP | -0.156 |
| RRIRDRPPRLPRPRPRPFWYPRP | -0.167 |
| RRIRKRPPRLPRPRPRPPTSPRP | 0.146 |
| RRIRGRPPRLPRPRPRPFLFPRP | 0.39 |
| RRIRTRPPRLPRPRPRPLWPPRP | 0.216 |
| RRIRWRPPRLPRPRPRPFDGPRP | -0.0363 |
| RRIRMRPPRLPRPRPRPRKCPRP | 0.0129 |
| RRIRYRPPRLPRPRPRPSEHPRP | -0.488 |
| RRIRIRPPRLPRPRPRPDHKPRP | -0.413 |
| RRIRGRPPRLPRPRPRPQDSPRP | 0.135 |
| RRIRTRPPRLPRPRPRPGDNPRP | -0.00277 |
| RRIRARPPRLPRPRPRPPHKPRP | 0.996 |
| RRIRNRPPRLPRPRPRPHEYPRP | -0.048 |
| RRIRHRPPRLPRPRPRPCCDPRP | -0.228 |
| RRIRERPPRLPRPRPRPNHHPRP | -0.845 |
| RRIRWRPPRLPRPRPRPCVTPRP | 0.024 |
| RRIRYRPPRLPRPRPRPVAVPRP | 3.17 |
